Source: patent publication US20250009896

Test system: T1, Free DX600 peptide
T1 sequence: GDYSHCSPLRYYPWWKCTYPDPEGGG

Recombinant human angiotensin-converting enzyme 2 (ACE2) protein, carrier-free (R&D Systems)
initial velocity of ACE2 cleavage of fluorogenic substrate: there is no appreciable difference in the initial velocity of ACE2 cleavage in the presence of Ligand in comparison to the free DX600 peptide alone
